In patent US20180186853A1 (HANMI PHARM, published 2018):
Non-standard residues stand in square brackets, D forms with d. No end group written: not given here. Aib = CC(C)(N)C(=O)O

Molecular target: human glucagon receptor (human, UniProt P47871 26-477)
Test: cell-based or functional assay

Chain of human glucagon receptor (P47871 26-477): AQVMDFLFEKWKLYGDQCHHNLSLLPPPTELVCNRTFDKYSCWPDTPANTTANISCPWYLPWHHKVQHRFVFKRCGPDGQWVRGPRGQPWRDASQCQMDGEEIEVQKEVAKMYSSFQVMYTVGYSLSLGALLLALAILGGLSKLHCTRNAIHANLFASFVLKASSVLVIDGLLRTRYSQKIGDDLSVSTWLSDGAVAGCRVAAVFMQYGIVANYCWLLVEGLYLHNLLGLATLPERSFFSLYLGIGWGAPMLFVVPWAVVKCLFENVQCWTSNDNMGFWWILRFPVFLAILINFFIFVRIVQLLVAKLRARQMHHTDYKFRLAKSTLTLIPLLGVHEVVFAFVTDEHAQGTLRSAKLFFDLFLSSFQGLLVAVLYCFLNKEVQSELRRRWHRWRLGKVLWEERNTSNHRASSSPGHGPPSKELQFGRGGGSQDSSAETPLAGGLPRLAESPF

| In vitro Activity (Relative Activity of SEQ ID NO: 1, %), from cAMP EC50 [%] | Binder |
| --- | --- |
| < 0.1 | YSQGTFTSDYSKYLDSCEADDFVQWLMNT [glucagon derivative of SEQ ID NO: 7] |
| < 0.1 | HSQGTFTSDYSKYLDSCEADDFVQWLMNT [glucagon derivative of SEQ ID NO: 6] |
| < 0.1 | Y[Aib]QGTFTSDYSKYLDSCDAQDFVQWLINT [glucagon derivative of SEQ ID NO: 8] |
